The source of these data is patent US11156615B2 (priority 2015, dated 2021).

Series [1] in a line: Thermostability: mid-point thermal denaturation temperature (Tm) from temperature-dependent fluorescence (Roche LightCycler). The format is physicochemical. The note with it: for apoTm: apo-protein. An excerpt:
Protein (un)folding is monitored by binding of SYPRO to the unfolded state as a function of temperature. Fluorescence intensity increases upon binding of SYPRO by the unfolded state.
Panels A-C: ttGBP182C.2.0-Imm0; Panels D-F: ttGBP182C.2.0-Imm1 (see FIG. 13). (A) Solution (Tm=347.6K). (B) Immobilized on Nickel-nitriloacetic acid (Ni-NTA) beads (Tm=346.7K). (C) Reconstituted, desiccated Ni-NTA beads (Tm=347.6K). (D) Fluorescence response of ttGGBP5.2 Imm1 immobilized on NHS-functionalized agarose beads. Data was collected on a Roche LightCycler real-time PCS instrument, recording emission intensities at 488 nm and 510 nm as a function of temperature in a 384-well microtiter plate. […] Temperature melts of twelve different wells. Apo protein thermostability as reported by the denaturation mid-point temperature is 349 K, similar to the protein free in solution. […] (F) Representative Langmuir ligand-binding curve extracted from the three-dimensional data.
Temperatures were advanced in 1K steps. […] Under these experimental photobleaching was not observed.

Series [2] in a line: Glucose binding: isothermal fluorescence titrations, ratiometric (appKd) and monochromatic (trueKd) fits. On the set-up: key to Glucose appKd / Glucose trueKd: nb, no bonding. The source says: 2 For a single glucose-binding site, the fractional saturation is given by
[formula] where ^apoIλ2 and ^satIλ2 are the emission intensities of the monochromatic signal at wavelength λ2 of the ligand-free and ligand-bound protein, respectively.

Series [3] in a line: Galactose binding: isothermal fluorescence titrations of conjugates. On the set-up: key to Galactose trueKd: nb, no bonding. To be noted: for S, selectivity = trueKd(galactose)/trueKd(glucose) / Kd: Acrylodan conjugate; for S, selectivity = trueKd(galactose)/trueKd(glucose): S > 1, selective for glucose; for Kd: read-out: Galactose trueKd; for Kd / Galactose trueKd: monochromatic titration curves, room temperature; for Galactose trueKd: Badan conjugate.

The mark [4] stands for this setting: read-out: Glucose appKd, Acrylodan conjugate, dichromatic ratiometry, room temperature.
The mark [5] stands for this setting: read-out: Glucose trueKd, Acrylodan conjugate, monochromatic titration curves, room temperature.

Residue numbers refer to the chain shown, from its start. Names may count otherwise.

Turning to “ecGGBP: glucose-galactose binding protein from Escherichia coli, SEQ ID NO: 1 [reference compound]”, in series [1] (GGBP homologs), the “mid-point thermal denaturation temperature (Tm)” value is listed as 322 K.

B1: ttGGBP182C.2.0⋅Acrylodan: Acrylodan conjugate of ttGGBP W182C with Q148E+R91K double mutation (SEQ ID NO: 88) (conjugate)
chain: MKQLNIGVAIYKFDDTFMTGVRNAMTAEAQGKAKLNMVDSQNSQPTQNDQVDLFITKKMNALAINPVDRTAAGTIIDKAKQANIPVVFFNKEPLPEDMKKWDKVYYVGAKAEQSGILQGQIMADYWKAHPEADKNHDGVMQYVMLMGEPGHQDAILRTQYSIQTVKDAGIKVQELAKDYANCDRVTAHDKMAAWLSSFGDKIEAVFANNDDMALGAIEALKSAGYFTGNKYIPVVGVDATAPGIQAIKDGTLLGTVLNDAKNQAKATFNIAYELAQGITPTKDNIGYDITDGKYVWIPYKKITKDNISDAEQGGSHHHHHH
modifications: Acrylodan conjugate; ttGGBP182C.2.0 (affinity-tuning mutant, 182C background (Table 6) with signal peptide replaced with M and GGSHHHHHH at C-terminus)
As for B1, the Kd in series [2] (glucose, fit of ratiometric emission signal (figure legends), read-out: appKd) was determined as 4.5 mM; in series [2] (glucose, monochromatic fits at 475 nm and 545 nm (FIG. 11), read-out: trueKd) it was 6 mM. For the same molecule, the “decrease in glucose affinity” value in series [2] (in ttGGBP182C⋅Acrylodan) came out at 2.6 fold.

B2: ttGGBP182C.2.5: affinity-tuning mutant, 182C background, SEQ ID NO: 92 (protein)
chain: B1 chain with H151Q
modifications: ttGGBP182C.2.5 (affinity-tuning mutant, 182C background (Table 6) with signal peptide replaced with M and GGSHHHHHH at C-terminus)
With B2, the apoTm in series [1] (Acrylodan conjugate) is 346 K. The “S, selectivity = trueKd(galactose)/trueKd(glucose)” value in series [3] is 1.6. The values for the Kd in series [3], in series [2] (setting [4]) and in series [2] (setting [5]) were 20.3 mM, 10.8 mM and 13 mM, respectively.

B3: ttGGBP17C.21: affinity-tuning mutant, 17C background, SEQ ID NO: 79 (protein)
chain: B1 chain with F17C, K91R, E148Q, C182W, N258A
modifications: ttGGBP17C.21 (affinity-tuning mutant, 17C background (Table 6) with signal peptide replaced with M and GGSHHHHHH at C-terminus)
In turn, B3 came in with an apoTm in series [1] (Badan conjugate) of 345 K. The “Galactose trueKd” value in series [3] is recorded as “nb”. The Kd in series [2] (read-out: Glucose appKd, Badan conjugate, dichromatic ratiometry, room temperature) is 61 mM; in series [2] (read-out: Glucose trueKd, Badan conjugate, monochromatic titration curves, room temperature), 69 mM.

B4: ttGGBP182C.2.7: affinity-tuning mutant, 182C background, SEQ ID NO: 94 (protein)
chain: B1 chain with H151F
modifications: ttGGBP182C.2.7 (affinity-tuning mutant, 182C background (Table 6) with signal peptide replaced with M and GGSHHHHHH at C-terminus)
The molecule B4 came in with an apoTm in series [1] (Acrylodan conjugate) of 346 K.

B5: ttGGBP182C.2.1: affinity-tuning mutant, 182C background, SEQ ID NO: 89 (protein)
chain: B1 chain with A154S
modifications: ttGGBP182C.2.1 (affinity-tuning mutant, 182C background (Table 6) with signal peptide replaced with M and GGSHHHHHH at C-terminus)
B5 yielded an apoTm in series [1] (Acrylodan conjugate) of 328 K. Besides, the “S, selectivity = trueKd(galactose)/trueKd(glucose)” value in series [3] was determined as 3.2. The Kd in series [3] was found to be 13.1 mM; in series [2] (setting [4]), 3 mM; in series [2] (setting [5]) it was 4.1 mM.

B6: ttGGBP182C.2.9: affinity-tuning mutant, 182C background, SEQ ID NO: 96 (protein)
chain: B1 chain with A154F
modifications: ttGGBP182C.2.9 (affinity-tuning mutant, 182C background (Table 6) with signal peptide replaced with M and GGSHHHHHH at C-terminus)
B6: the apoTm in series [1] (Acrylodan conjugate) is listed as 345 K.

B7: ttGGBP182C.2.8: affinity-tuning mutant, 182C background, SEQ ID NO: 95 (protein)
chain: B1 chain with D15N
modifications: ttGGBP182C.2.8 (affinity-tuning mutant, 182C background (Table 6) with signal peptide replaced with M and GGSHHHHHH at C-terminus)
Molecule B7 showed an apoTm in series [1] (Acrylodan conjugate) of 343 K. For the same molecule, the “S, selectivity = trueKd(galactose)/trueKd(glucose)” value in series [3] stood at 1.8.

B8: ttGGBP17C.19: affinity-tuning mutant, 17C background, SEQ ID NO: 77 (protein)
chain: B1 chain with F17C, K91R, E148Q, C182W, N258D
modifications: ttGGBP17C.19 (affinity-tuning mutant, 17C background (Table 6) with signal peptide replaced with M and GGSHHHHHH at C-terminus)
Regarding B8, in series [1] (Badan conjugate), the apoTm was determined as 344 K. In addition, in series [3], the “Galactose trueKd” value is on record as “nb^e”. Moreover, the “Glucose appKd” value in series [2] (Badan conjugate, dichromatic ratiometry, room temperature) is recorded as “nb^e”. Further, the “Glucose trueKd” value in series [2] (Badan conjugate, monochromatic titration curves, room temperature) is reported as “nb^e”.

B9: ttGGBP182C.2.0: affinity-tuning mutant, 182C background (R91K, Q148E), SEQ ID NO: 88 and 298 (protein)
chain: B1 chain
modifications: ttGGBP182C.2.0 (affinity-tuning mutant, 182C background (Table 6) with signal peptide replaced with M and GGSHHHHHH at C-terminus)
B9 displayed an apoTm in series [1] (Acrylodan conjugate) of 346 K. In series [3], the “S, selectivity = trueKd(galactose)/trueKd(glucose)” value is given as 3.1. Also, the Kd is 18.5 mM in series [3], 4.5 mM in series [2] (setting [4]) and 6 mM in series [2] (setting [5]).

B10: ttGGBP182C: ttGGBP cys mutant, SEQ ID NO: 61 (protein)
chain: B1 chain with K91R, E148Q
modifications: ttGGBP182C (ttGGBP cys mutant with signal peptide replaced with M and GGSHHHHHH at C-terminus)
The molecule B10 had an apoTm in series [1] (Acrylodan conjugate) of 347 K. For the same molecule, the Kd in series [3] worked out at 3.3 mM.

B11: ttGGBP182C.2.3: affinity-tuning mutant, 182C background, SEQ ID NO: 90 (protein)
chain: B1 chain with A154N
modifications: ttGGBP182C.2.3 (affinity-tuning mutant, 182C background (Table 6) with signal peptide replaced with M and GGSHHHHHH at C-terminus)
B11 displayed an apoTm in series [1] (Acrylodan conjugate) of 346 K. For the same molecule, in series [3], the “S, selectivity = trueKd(galactose)/trueKd(glucose)” value was determined as 10.9. The Kd in series [2] (setting [4]) stood at 16.3 mM; in series [2] (setting [5]) it was 19 mM.

B12: ttGGBP182C.7: affinity-tuning mutant, 182C background, SEQ ID NO: 101 (protein)
chain: B1 chain with E148S
modifications: ttGGBP182C.7 (affinity-tuning mutant, 182C background (Table 6) with signal peptide replaced with M and GGSHHHHHH at C-terminus)
In series [1] (Acrylodan conjugate), B12 yielded an apoTm of 346 K. In addition, the Kd in series [3] is 1.1 mM.

B13: ttGGBP182C.2.4: affinity-tuning mutant, 182C background, SEQ ID NO: 91 (protein)
chain: B1 chain with A154M
modifications: ttGGBP182C.2.4 (affinity-tuning mutant, 182C background (Table 6) with signal peptide replaced with M and GGSHHHHHH at C-terminus)
B13 returned an apoTm in series [1] (Acrylodan conjugate) of 346 K. The Kd in series [3] was 4.5 mM.
